Experimental data: patent US20050112698A1 (Bayer, published 2005)

Legend:
[1] = biological target: T1, human Stem Cell Factor (human, UniProt P21583 26-189); assay: cell-based or functional assay
[2] = biological target: T1, human Stem Cell Factor; assay: cell-based or functional assay; remark: listed apart in the source
[3] = biological target: T2, Cynomolgus Monkey SCF (cynomolgus monkey, UniProt A0A7N9CAX5 26-189); assay: cell-based or functional assay
[4] = biological target: T1, human Stem Cell Factor; assay: BIAcore, Affinity Estimation, Fab
[5] = biological target: T2, Cynomolgus Monkey SCF; assay: SPR BIAcore 2000, Fab over 185 RU immobilized cSCF
Experimental: (§1) Affinity measurements were carried out on a BIAcore 2000 (Biacore) at 25° C. […] Purified Fab's were diluted in HBS-EP running buffer at concentrations ranging from 1.95 to 125 nM. A volume of 100 μl was injected using a flow rate of 50 μl/min in Kinject mode. After a 10 min dissociation, 50 μl of 10 mM Glycine, pH 2.5 and 25 μl of 10 mM Glycine, pH 2.0 was injected using a flow rate of 100 μl/min. All samples were run in duplicate. […] Cynomologus monkey SCF was diluted in HBS-EP running buffer at concentrations ranging from 15.6 to 500 nM and 150 μl injected at a flow rate of 50 μl/min. After a 15 min dissociation, 50 μl of 10 mM Glycine, pH 2.5, and 25 μl of 10 mM Glycine, pH 1.5 was injected using a flow rate of 100 μl/min. All samples were run in duplicate. The data was globally fit to the 1 to 1 binding model using BIAevaluation software. The raw experimental data were corrected for instrumental and bulk solvent artifacts by double referencing using both activated and blocked surfaces as controls.
(§2) To evaluate the binding properties of anti-SCF Fabs selected from affinity optimization of the CDR3 loop with SCF, the real time interaction was measured using surface plasmon resonance with the BIAcore 2000. […] The improvement in Kd's are primarily governed by a substantial reduction in the off-rate (koff). […] The affinity constants for Fab binding to human SCF were slightly lower than those Kd's for cynomologus monkey SCF. The panning design, with lower antigen concentrations and extensive washing steps, favors off-rate selection. The affinity of the A2-G8 clone in an IgG vector was measured using the IgG immobilized to the surface of the CM5 chip.

[6] = biological target: T2, Cynomolgus Monkey SCF; assay: competition ELISA: cSCF binding to coated human SCFR, Fab 3.1 µg/ml
Experimental: The extracts containing Fab were also tested for the ability to inhibit SCF binding to the SCF receptor. ELISA plates were coated overnight with 2 μg/ml human SCFR (R&D Systems, Minneapolis, Minn.) in PBS at 4° C. After washing with TBS-T, the plate was blocked with 5 mg/ml BSA in PBS. The extract was diluted 1/5 in PBS buffer containing 12.5 ng/ml cSCF and 1 mg/ml BSA. After a 1 hr incubation at room temperature, 100 μl was added to the blocked ELISA plate and incubated an additional hour. The plate was washed 5 times with TBS-T, and 100 μl of a 0.4 μg/ml solution of anti-SCF (R&D Systems) in 1 mg/ml BSA in PBS was added. After 1 hour the plate was washed and incubated with anti-Mouse-HRP (Sigma, St. Louis, Mo.). The plate was developed with BM Blue POD substrate (Roche Diagnostics, Chicago, Ill.) and read at 370 nm.
(§3) TABLE 12 Sequences of the CDR3 Vk1 Region of Selected Antibody Clones with Comparison of koff and SCF Inhibitory Activity The off-rates were determined using a high density surface CM5 chip (5000 RU of immobilized cSCF) on BIAcore and are shown with comparison to the original A2-G8 clone. […] The IC₅₀ in the TF-1 proliferation assay was based on an average of two assays with the exception of the A2-G8-IgG (n = 5).

[7] = biological target: T2, Cynomolgus Monkey SCF; assay: SPR BIAcore, initial screening (high RU of immobilized antigen, low flow rate)
Experimental: Analysis of Fab binding to cSCF was performed by surface plasmon resonance using a BIAcore 2000 (Biacore, Piscataway, N.J.), according to the manufacturer's instructions and a CM5 chip (Biacore) coated with cSCF. For amine coupling, a research grade CM5 chip was activated using the standard NHS/EDC procedure. Cynomologus monkey SCF was diluted to 20 μg/ml in 10 mM NaAcetate, pH 5.0, and a total of 5000 RU's were coupled to channel 2 of the sensor surface. The remaining active sites were quenched by the addition of 1M ethanolamine, pH 8.0. Channel 1 was subjected to the coupling procedure in the absence of protein and was used as a reference surface. […] The koff was calculated from a single concentration of Fab using BIAevaluation software (Biacore).
The koffrates determined using kinetic conditions (low RU's of immobilized antigen and high flow rates) on the BIAcore gave higher values than those koff's determined under non-kinetic conditions used during the initial screening procedure (high RU's of immobilized antigen and low flow rates). This is especially apparent for the A2-G8 Fab, where a koff of 6×10⁻³ sec⁻¹ was measured during the initial screening process, compared to a koff value of 1×10⁻² sec⁻¹ measured using kinetic parameters. […] The koff rates determined in the initial screening process, therefore, should not be considered absolute values but a ranking with other Fabs.

[8] = biological target: T2, Cynomolgus Monkey SCF; assay: SPR BIAcore, 5000 RU immobilized cSCF, off-rate ranking; high density chip (5000 RU cSCF), off-rate ranking
Experimental: as §3
Analysis of Fab binding to cSCF was performed by surface plasmon resonance using a BIAcore 2000 (Biacore, Piscataway, N.J.), according to the manufacturer's instructions and a CM5 chip (Biacore) coated with cSCF. For amine coupling, a research grade CM5 chip was activated using the standard NHS/EDC procedure. Cynomologus monkey SCF was diluted to 20 μg/ml in 10 mM NaAcetate, pH 5.0, and a total of 5000 RU's were coupled to channel 2 of the sensor surface. The remaining active sites were quenched by the addition of 1M ethanolamine, pH 8.0. Channel 1 was subjected to the coupling procedure in the absence of protein and was used as a reference surface. Extracts were diluted 1/5 in HBS-EP running buffer and injected for 2 min using a flow rate of 20 μl/min. The surface was regenerated by two consecutive injections of 25 μl, 10 mM glycine, pH 2.5, using a flow rate of 100 μl/min. The koff was calculated from a single concentration of Fab using BIAevaluation software (Biacore).

[9] = biological target: T1, human Stem Cell Factor; assay: cell-based or functional assay; remark: listed apart in the source
[10] = biological target: T2, Cynomolgus Monkey SCF; assay: SPR BIAcore 2000, cSCF over 550 RU immobilized IgG
Experimental: as §1, §2

[11] = biological target: T2, Cynomolgus Monkey SCF; assay: SPR BIAcore, off-rate (legend: 5000 RU immobilized cSCF); Table 12 off-rate list (legend: immobilized cSCF)
[12] = biological target: T1, human Stem Cell Factor; assay: cell-based or functional assay; remark: listed apart in the source
[13] = biological target: T2, Cynomolgus Monkey SCF; assay: cell-based or functional assay; remark: listed apart in the source
[14] = biological target: T3, rat Stem Cell Factor (rat, UniProt P21581 26-189, limits assumed); assay: cell-based or functional assay
T3 sequence (looked up): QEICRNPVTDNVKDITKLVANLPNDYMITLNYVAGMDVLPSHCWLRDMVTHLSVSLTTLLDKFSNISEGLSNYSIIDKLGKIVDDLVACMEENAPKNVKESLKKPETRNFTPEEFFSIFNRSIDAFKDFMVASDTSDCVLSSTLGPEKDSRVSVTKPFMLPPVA

[15] = biological target: T1, human Stem Cell Factor; assay: cell-based or functional assay; remark: listed apart in the source
[16] = biological target: T1, human Stem Cell Factor; assay: BIAcore, Fab on immobilized SCF

T1 sequence (P21583 other isoform, or with tags, fused parts or gaps limits assumed): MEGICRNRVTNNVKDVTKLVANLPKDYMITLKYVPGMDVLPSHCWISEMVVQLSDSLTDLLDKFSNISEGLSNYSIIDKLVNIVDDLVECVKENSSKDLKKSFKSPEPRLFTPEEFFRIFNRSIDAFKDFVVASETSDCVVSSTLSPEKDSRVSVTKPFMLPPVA

B1: Fab A2-G8 (Fab, V domains shown)
VH: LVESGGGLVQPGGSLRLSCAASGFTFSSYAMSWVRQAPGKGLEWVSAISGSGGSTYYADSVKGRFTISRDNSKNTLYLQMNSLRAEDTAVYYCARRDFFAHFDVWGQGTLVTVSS
VL: QMTQSPSSLSASVGDRVTITCRASQGIRGYLGWYQQKPGKAPKLLIYSASSLQSGVPSRFSGSGSGTDFTLTISSLQPEDFATYYCQQYSGMPYTFGQGTKVEIKR
notes: Fab format; also called anti-SCF Fab A2-G8; parent Fab A2-G8
In the case of B1, the “TF-1 Fab assay IC50” value [1] is reported as 5 µg/mL, the “IC50 TF-1 huSCF Assay” value [2] is reported as 2.36 µg/mL and the “IC50 TF-1 cynoSCF Assay” value [3] is reported as 5.7 µg/mL. It also gave a Kd [4] of 9 nM, a Kd [5] of 25.1 nM and a koff [5] of 0.0106 s⁻¹. For the same binder, the kon [5] was 420000 M⁻¹ s⁻¹, the “% Inhibition SCF Binding ELISA Assay” value [6] was 30% and the koff [7] was 0.006 s⁻¹. It also gave a koff [8] of 0.00306 s⁻¹.

B2: A2-G8 IgG (antibody, V domains shown)
VH: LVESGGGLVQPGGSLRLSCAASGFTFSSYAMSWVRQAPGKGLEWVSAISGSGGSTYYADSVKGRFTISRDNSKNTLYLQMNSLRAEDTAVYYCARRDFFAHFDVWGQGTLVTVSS
VL: QMTQSPSSLSASVGDRVTITCRASQGIRGYLGWYQQKPGKAPKLLIYSASSLQSGVPSRFSGSGSGTDFTLTISSLQPEDFATYYCQQYSGMPYTFGQGTKVEIKR
notes: Human IgG1 kappa expressed in HKB11 cells; also called A2-G8 Mab; SCF antibody A2-G8
In the case of B2, the “Eosinophil IgG assay IC50 (human eosinophil survival)” value [1] is reported as 1.5 µg/mL, the “TF-1 IgG assay IC50” value [1] is reported as 1 µg/mL and the “IC50, Cyno Eos (SCF-stimulated cyno eosinophil survival)” value [9] is reported as 3 µg/mL. The “IC50, Human Eos (SCF-stimulated human eosinophil survival)” value [9] was 1.5 µg/mL, the “IC50, TF-1 (SCF-induced TF-1 proliferation)” value [9] was 1 µg/mL and the “IC50 TF-1 huSCF Assay” value [2] was 2.32 µg/mL. For the same binder, the “IC50 TF-1 cynoSCF Assay” value [3] was 11.2 µg/mL, the Kd [10] was 35.8 nM and the koff [10] was 0.0013 s⁻¹. For the same binder, the kon [10] was 36300 M⁻¹ s⁻¹ and the koff [11] was 0.0013 s⁻¹.

B3: Fab A2 (Fab, V domains shown)
VH: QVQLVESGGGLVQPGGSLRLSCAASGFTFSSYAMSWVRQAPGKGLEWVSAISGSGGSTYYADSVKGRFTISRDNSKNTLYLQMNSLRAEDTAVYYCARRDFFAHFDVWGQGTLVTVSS
VL: DIQMTQSPSSLSASVGDRVTITCRASQGISSYLAWYQQKPGKAPKLLIYAASSLQSGVPSRFSGSGSGTDFTLTISSLQPEDFATYYCQQYSGMPYTFGQGTKVEIK
notes: HuCAL Fab and parent of the A2-xx clones; It carries FLAG and Strep tags
In the case of B3, the “percent inhibition of SCF-induced TF-1 proliferation at 200 ug/ml Fab” value (“percent inhibition” for short) [12] is reported as greater than 100%, the “IC50, inhibition of cyno SCF in TF-1 proliferation” value [13] is reported as 20 to 60 µg/mL and the “percent inhibition” value [13] is reported as greater than 100%. For the same binder, the “IC50, inhibition of rat SCF in TF-1 proliferation” value [14] was 20 to 60 µg/mL, the “percent inhibition” value [14] was greater than 100% and the “Efficacy IC50 (TF-1 proliferation assay, Fab)” value [15] was 29 µg/mL. The Kd [16] was 65.7 nM.
